The results in this text go back to PMC10447908 (2023).

Holding throughout (assay): FACS
Assay [1] addresses SARS-CoV-2 Spike receptor binding domain, Delta variant (SARS-CoV-2, UniProt P0DTC2, biotinylated in vitro when needed).
The target of assay [2] is SARS-CoV-2 Spike receptor binding domain, Omicron variant (SARS-CoV-2, UniProt P0DTC2, biotinylated in vitro when needed).
The target of assay [3] is SARS-CoV-2 Spike receptor binding domain, Wuhan (ancestral) variant (SARS-CoV-2, UniProt P0DTC2, biotinylated in vitro when needed).

B1: Xiang-Liu 1 (designed binder)
chain: NDDELHMLMTDLVYEALHFAKDEEIKKRVFQLFELADKAYKNNDRQKLEKVVEELKELLERLLSEEDPCACESILKFEAKVEGLLQALTRKLEAVSGRLAVLENRIIDKEWILQKIYEIMRLLDELGHAEASMRVSDLIYEFMKKGDERLLEEAERLLEEVER
Take B1: the figures for the concentration for half-maximal inhibition (IC50) in assay [1], in assay [2] and in assay [3] were 5.1 nM, 36.4 nM and 9.3 nM, respectively.

B2: Xiang-Liu 2 (designed binder)
chain: NDDELHMLMTDLVYEALHFAKDEEIKKRVFQLFELADKAYKNNDRQKLEKVVEELKELLERLLSEEDPCACESILKFEAKVEGLLQALTRKLEAVSGRLAVLENRIIQVQLVESGGGLVQAGGSLRLSCAASGRTFSNDALGWFRQAPRKEREFVAAINWNSGTYYADSVKGRFTISRDNAKNTVYLQMNSLKPEDTAVYSCAAASDYGLPREDFLYDYWGQGTQVTVSS
On to B2, for which the IC50 was 6.8 nM in assay [1], 5.2 nM in assay [2] and 12.6 nM in assay [3].
